Source: PMC3637500

B1: Myc-tagged full-length Gab1 (wild type) [mouse] / GST-PTP1B-D181A (substrate-trapping mutant of PTP1B, GST fusion protein) [mouse] (parent)
chain 1: MSGGEVVCSGWLRKSPPEKKLKRYAWKRRWFVLRSGRLTGDPDVLEYYKNDHAKKPIRIIDLNLCQQVDAGLTFNKKEFENSYIFDINTIDRIFYLVADSEEDMNKWVRCICDICGFNPTEEDPVKPLTGSSQAPVDSPFAISTAPASSQMEASSVALPPPYQVISLPPHPDTLGLQDDPQDYLLLINCQSKKPEPNRTLFDSAKPTFSETDCNDNVPSHQTPASSQSKHGMNGFFQQQMMYDCPPSRLTSVSGESSLYNLPRSYSHDVLPKESPSSTEADGELYTFNTPSGTAGVETQMRHVSISYDIPPTPGNTYQIPRTFPESTLGQSSKLDTIPDIPPPRPPKPHPTHDRSPVETCGVPRTASDTDSSYCIPPPAGMTPSRSNTISTVDLNKLRKDASSQDCYDIPRTFPSDRSSSLEGFHSQYKIKSVLTAGGVSGEELDENYVPMNPNSPPRQHSGSFTEPIQEPNYVPMTPGTFDFSSFGMQVPPPAHMGFRSSPKTPPRRPVPVADCEPPPVDRNLKPDRKVKPAPLDIKPLSEWEELQAPVRSPITRSFARDSSRFPMSPRPDSVHSTTSSSDSHDSEENYVPMNPNLSGEDPNLFASNSLDGGSSPMNKPKGDKQVEYLDLDLDSGKSTPPRKQKSSGSGSSMADERVDYVVVDQQKTLALKSTREAWTDGRQSTESETPTKNVK
chain 2: MEMEKEFEEIDKAGNWAAIYQDIRHEASDFPCKVAKLPKNKNRNRYRDVSPFDHSRIKLHQEDNDYINASLIKMEEAQRSYILTQGPLPNTCGHFWEMVWEQKSRGVVMLNRIMEKGSLKCAQYWPQQEEKEMVFDDTGLKLTLISEDVKSYYTVRQLELENLTTKETREILHFHYTTWPAFGVPESPASFLNFLFKVRESGSLSLEHGPIVVHCSAGIGRSGTFCLADTCLLLMDKRKDPSSVDIKKVLLEMRRFRMGLIQTADQLRFSYLAVIEGAKFIMGDSSVQDQWKELSREDLDLPPEHVPPPPRPPKRTLEPHNGKCKELFSSHQWVSEETCGDEDSLAREEGRAQSSAMHSVSSMSPDTEVRRRMVGGGLQSAQASVPTEEELSSTEEEHKAHWPSHWKPFLVNVCMATLLATGAYLCYRVCFH

Variants of: B1
Test: GST pull-down, anti-Myc immunoblot densitometry
Details: with GST-PTP1B-D181A (substrate-trapping mutant of PTP1B, GST fusion protein) [mouse]; Gab1 expressed in HEK-293 T cells, pervanadate treatment; normalized to lysate loading control; parent: 100; read off a plot

Row | Variant | percent of parent
1 | chain 1 Y285F | 180%
2 | chain 1 Y407F | 160%
3 | chain 1 Y448F | 170%
4 | chain 1 Y473F | 270%
5 | chain 1 Y373F | 200%

Next, values leading:

Row | percent of parent | Variant
6 | 150% | chain 1 Y660F
7 | 240% | chain 1 Y628F
8 | 310% | chain 1 Y590F
